# Experiment: soluble on expression in E. coli; label from the status in PepcDB or PDB records
row,Sequence,soluble on expression in E. coli
1,RSTIGAGQKVNVEFVSANPTGPMHVGHVRGAVVGDALARLLAYAGWNVTREYYINDGGAQVDVLARSAFERYREAHGLEPEIREGLYPGDYLIPVGEALKAKYGDSLLDKGEQHWLTEVREFATEMMMQMIREDLAALGVEMDVYSSEKALYGTGKIEAALDRLKEMDLIYEGVLEPPKGKTPEDWEPREQTLFRSTAHGDDVDRPVKKSDGSWTYFAPDIAYHYDKVTRGFDQLIDIFGADHGGYVKRMKAAVAALSAGRVPLDIKLIQLVKLWKNGEPFKMSKRAGTYVTLRDVVEQVGTDVTRFVMLTRKNDATLDFDFDKVLEQSKENPVFYVQYANARINSVLRKAREQGMDVSDA,not soluble
2,MSLSEGTFEVGKNTFLLNGEPFVVKAAEIHYPRIPKEYWEHRIKMCKALGMNTICLYVFWNFHEPEEGRYDFAGQKDIAAFCRLAQENGMYVIVRPGPYVCAEWEMGGLPWWLLKKKDIKLREQDPYYMERVKLFLNEVGKQLADLQISKGGNIIMVQVENEYGAFGIDKPYISEIRDMVKQAGFTGVPLFQCDWNSNFENNALDDLLWTINFGTGANIDEQFKRLKELRPDTPLMCSEFWSGWFDHWGAKHETRSAEELVKGMKEMLDRNISFSLYMTHGGTSFGHWGGANFPNFSPTCTSYDYDAPINESGKVTPKYLEVRNLLGNYLPEGETLPEIPDSIPTIAIPTIKMTEMAVLFDNLPHPKESEDIRTMEAFDQGWGSILYRTSLSASDKEQTLLITEAHDWAQVFLNGKKLATLSRLKGEGVVKLPPLKEGDRLDILVEAMGRMNFGKGIYDWKGITEKVELQSDKGVELVKDWQVYTIPVDYSFARDKQYKQQENAENQPAYYRSTFNLNELGDTFLNMMNWSKGMVWVNGHAIGRYWEIGPQQTLYVPGCWLKKGENEIIILDMAGPSKAETEGLRQPILDVQRGNGAYAHRKMGEGHHHHHH,soluble
3,MGSDKIHHHHHHMETLRILHTNDLHSHFEHFPKIRRYLKQVQETAAADQVLTFDAGDFMDRSHPLSDATEGQANIRLMNDFHYDAITIGNNEGISNPHAVLERLFDHANFPVLLSNLREEDESWPAWANDYKIIKTKKGTRLALVGLTAAYPMTYGPNHWQIKMLGETMDRVLPEIAGQYDCLILLTHVGLRMDQWLAKHYPEIDLIVGGHSHTLLEKGVKEGRTWITQTDKWGNYVGDISLEIGDDHKIISIKPTTVPVADLPSQAGDEAEIAALYEEGQKMLQSRHVADLPEKFKDDKLAAIDVSLEAIADFAGTDLAMLSTGLFLTPFKGGLINQFDLQHALPHPMHVVRTTLLGRDLWRLVMEVEKNRHFLENYPLVGMSFRGKIFGQVYYRGIKYDPMTRNVFVNGQLLDPAEEYRIAVLDHYVLIPFFPTLAIVGENEFLFPQFLREVVGDYLGRKYPMKKEGE,not soluble
4,MERGEIWLVSLDPTAGHEQQGTRPVLIVTPAAFNRVTRLPVVVPVTSGGNFARTAGFAVSLDGVGIRTTGVVRCDQPRTIDMKARGGKRLERVPETIMNEVLGRLSTILT,soluble
5,MGSDKIHHHHHHTDENETNNGKRTDCYNGTPLTVRATATGFENVPGSEKPSTRASVTDEHLKTEFVDGDSIGIFSIKDSTIVDDINNIPLVYNVSNDSWNPVENSKTLYWYDGASYIAYYPYRKNITLDVSKDTDEAIASLTRNEKLQPSKDQSTKEKHTVSDLLIATGVPTTGNSSGIILNLQFKHQFTLLVLQPQAYIGCFAPENAGFVYHKESRILGTDSAAINVNLNGITPYQIDSVKFCAIVPSQKNARITGSYVTADGRNNTNTKINYSGSSITFASGKCYTLKVISPVPGKGSTERKLYPGDFVFQNETEKRIEIHPGDGMLEENGKIYDYQNAIGMVITCDSKKMTDVKCNENGWNHAYVMGFENLGTGRWGGMERIEEGITPMTKDDEIEKNMNGYSETEQMLKNYTANVQGSYSAFESIRKYRNSNKIPDGLNRSPWFVPSIGQWFDMLVNICGKSPRDFRNETSNGLNDTGWGQETLDKLTIQLSKVGNSLPQFSDTYRLGFSCSSQYDKDRCWMLLWHIDDPEYPNWDRVCLQGYDKKAYWNVRPFFAF,not soluble
6,MNGIKTGLGITPGEHIISADSALSRNIRQCFCLSCHGRLILQTDAQGAWFEHDLHALSEQQKADCVVLNPEKSHPYIEDMAMFLSPLPVVLEWHCVMCEQFFHGKKFCEACGTGIYCRAVCTKSVYSYQPDLFEDCGGAST,not soluble
7,MTIIAGLPVEYNDRFIRGIAVFAPWRKTPGNYHQSHGACLGRRSRTITVVDEQPQGMDMDPTCSLFTTGQCLGEPDLLASARRLQFFSHQYSIAVLMANARGNSALWDEYGRLIVRADRGSLLLVGQRSSQGWQGDIIPLR,not soluble
8,MAEQISHKKSLRVSSLNKDRRLLLREFYNLENEPNKGRQEARIGEKASEAHSGEEQVTDVNIDTEANTEKPVKDDELSATEEDLKEGSEDAEEEIKNLPFKRLVQIHNKLLGKETETNNSIKNTIYENYYDLIKVNDLLKEITNANEDQINKLKQTVESLIKEL,soluble
9,MEINVQSDVGRKRNTNQDYANVFENQQHITFAVLADGMGGHQAGDVASQMAVNNLGESWSNASVDSAEKSAQWLIQAIQKENEKIYERGQSKPEYLGMGTTVVGAILLPDSFVLANVGDSRAYLVRDQHMLQLTEDHSLVNELVKSGEITREMAANHPRKNVLTRSLGMPGTVEVDVTNHEWLPNDYLLLCSDGLTNMVPETKILEILETSDPLESKLSQLVAQANEAGGLDNITVLVIHFDEQKEENQ,not soluble
10,MKLSRISAINWNKIQDDKDLEVWNRLTSNFWLPEKVPLSNDIPAWQTLSAAEQQLTIRVFTGLTLLDTIQNIAGAPSLMADAITPHEEAVLSNISFMEAVHARSYSSIFSTLCQTKEVDAAYAWSEENPPLQRKAQIILAHYVSDEPLKKKIASVFLESFLFYSGFWLPMYFSSRGKLTNTADLIRLIIRDEAVHGYYIGYKYQIALQKLSAIEREELKLFALDLLMELYDNEIRYTEALYAETGWVNDVKAFLCYNANKALMNLGYEALFPPEMADVNPAILAALSPNADENHDFFSGSGSSYVMGKTVETEDEDWNF,soluble
11,LGECLADLAVDALIDEAELSPKPALVDRRGNGAHADLHLGLMQASALSLWPCFKEMADAAQRHGRIDARLRGVLGQLGRDGEAAMLRTTEGVNTHRGAIWALGLLVAAAALEPRRTQAGEVAARAGRIALLDDPAAAIGDSHGERVRRRYGVGGAREEARLCFPRAVRHGLPQLWRSREGGAGEQNARLDALLAIMSVLDDTCVLHRAGRVGLAAMQDGARAVLAAGGSASLAGRRRLCELDRRLLALNASPGGAADLLAACLFLDRLPAVSGGWAGSL,not soluble
12,MAYTLATHTAGVIPAGKLERVDPTTVRQEGPWADPAQAVVQTGPNQYTVYVLAFAFGYQPNPIEVPQGAEIVFKITSPDVIHGFHVEGTNINVEVLPGEVSTVRYTFKRPGEYRIICNQYCGLGHQNMFGTIVVKE,soluble
13,MSEPMSERERWQLELDKLQRGLQGDPFAFLGPQRDPGGEGGVLRAYLPGAQRVELLDEDGATLAELEQSDPGSGLFQRHLERLPPRYRLRVHWPDGVQESEDPYAFGPLLGELDLYLFAEGNHRQLASCLGAQLTRHEGVEGVRFAVWAPNAVRVSVVGDFNGWDGRRHPMRRRYPSGVWELFVPRLGEGELYKYELQGHDGLLPLKADPLALACETPPGTASKTCAALRHEWRDQDWLARRAERQGYAAP,not soluble
14,MGSDKIHHHHHHDAPLEQALTLAGDNRKELQQVLGHYEGDSLKHKAACFLIENMIGKGTIRYLLRESDSCYIQQEPEPDLTCITADYLIENIDLAFEVWQKYPWCKQLSFREFCRNILPYRLKQEPLDRWRSYYYTRYKMTVDSLARAGATMREIVFFFNSQHGKKYLHDAAKIPGDFSIELIEKLGGGTCDHLALNAVQLMRAVGIPLNLDILPYHGKVNGGHAYNSFTDENGKFFYFSPYEREPERNQWIAPLVQRVCYERQPEPKIGRNRWNTQLVNRLLKEVTDEYYLSDSVRLPVHTSDTVAYIATFNRGAFKVVSQGRVESNSVLHRVLPYGLLYFQMADKKGKLVPTGNPFVMTPDSIHFITPIRQTTVLNGILTYDVKRVLELGYEAYTLYYWKDGWQPVKEVTSKDSRTLDFGEVPVRSLFLVCGNTYMGRMQRPFLLEDGKPVYY,not soluble
15,MGSDKIHHHHHHMWDRGLHSYRMVHATLKCGCHYLGRVPKNVKFPVDKVLDDGSYLSWIAPDRKSKHKGGTRIQVRVIEYTIDSENGQQTYRLIPSLMDIALFPALLLATEYHQRWEIENTIDELKTHLNGRKTPIRSLKPREVVQEIYGWLLSHYAVRTLMFQAATAASISPLRLGFTGTLKVIRRAIADFQDANSEQLPFFLQANSGDFGAKNPYRRYIAALTQQRDFNLLILQNRLDHRFTNGCIPVFIIPKQINNREGLLQKTEVRK,not soluble
16,MGSDKIHHHHHHMPIDEWLVLNRIGIFENPSLRRYVSPFPPPELMGITSGLQSETGFAAHGADIYAALALASTIPITEYRHILDFGCGCGRLARMLKGHPHKISGCDIDLRHVKWIGQSLDFMNVKLSSVRPPIPFADDEMDAVISVSIFTHLTENSQDDFLAELFRVTRPGGTLFLTVHGAQALKRACHEQPIRHMLDMDEGRFRKAQQAFNQNKHGFVLQFGHLTTKPEKAFYTPRAIFRRIRDSFSRKTINMPFEYGIAFHPESYIREHWSKWFDILDYRHGAIHQFQDIVVLSPKK,not soluble
17,MDNLQKYKPTDKMIDLISDNYSLLQVMSRFGLSLGFGDKTVKEVCELNGVDCRTFLIVVNFMSEGFSRMDGSSEDISIPALIDYLRQAHIYFLDFSLPAIRRKLIEAIDCSQDDVAFLILKFFDEYTREVRKHMDYEEKTVFKYVDALINGNAPRNYQISTFSKHHDQVGEKLTELKNIIIKYCPAKANENLLNAALFDIYACEAGLESHCKVEDYIFVPAILKLERRIRENEK,not soluble
18,MGKLAFLFPGQGSQAVGMGKQLAENNKEVANVFAKADEVLQDSLSEVIFEGSQEKLTLTTNAQPALLTTSFAILTALKEYDITPDFVAGHSLGEYSALVAAGALTFEDAVYAVRKRGEYMEEAVPGGEGAMAAILGADPHMLKRVTEEVTGEGYAVQIANMNSTKQIVISGTKQGVEIASQRAKENGAKRAIPLKVSGPFHSALMKPAAEKFQSVLNEITIQDTNIPVIANVTADVITSGAHIQEKLIEQLYSPVLWYPSIEYMVNQGVDTFIEIGPGKVLAGLMKSIDSSVKAYAIYDEETLKDTISNLRGEN,not soluble
19,MGSDKIHHHHHHGDDDDSSSSGNWQDLSKTYEGKSVNLVMGEVTVPVDGKSVVIAASSAEKASVTLNNIIPENKSVAIDAALKEADGTYTFTGESTVGDCVVSVNGTVKGGVASVVYTRKLTSSIVGNWSLKVGVEAIYANIVTGNSTIDDLVRMIKPAISNLIWGKVSAVNVNLPEDGIFDVSWRPIGASEDKGIGEITKMASIQYCVVDGKFMVAVDKNYVTVLTTLLQQAAGDKLEAAGISIDEIMKLLVDLGGYYGLPLNMKVDGSEATFYADKDLIVPVLTMIAPILKPMVPENYQQMVDMVLQLLPNAKTLEFGLNFTK,not soluble
20,MGSDKIHHHHHHMNLQQLAVFREVMETGSVSAAARNLGRTQPAVSASLKALEVNLGIALFEREGRRLVPVPEAHYLLSEAAEILARVNTTEMNLVGMRNRTRGSLSVVGMPGPSVYLLPDFVSRFGSKADDLKISLSTRSSPQILNLIAAQAFDVGFCDLGFCDMSAEDLNSSLYHTKTIMSDCLCALPAQHPLAGRAVIDARQLSGERMGVLAGTHSTNRDTRAAFEQAGAVFNPRVEAQYFIPLLRFVEAGQICTVLDPLSAETYKRMNGGEVGIWFARFLPSVRFGYSIVTPKQRPLSLLAQDFVDGWSDHVREIIADHS,not soluble

# Source: the DeepSol protein solubility set
